Source: patent US20030147861A1, “Compounds and methods for the modulation of immune responses” (Genesis Research and Development Corporation Limited, priority 2001, published 2003)
“Also recorded” adds a separate entry of the source.

Key:
[1] = tested on: CD40, CD80 and CD86 on B cells; experiment: CD40, CD80 and CD86 expression on B cells (3 color flow cytometry); format: cell-based, human; conditions: 20 ug/ml, 48 hours, vs non-stimulated cells
Source text: (§1) Stimulated cells were harvested and analyzed for up-regulation of CD40, CD80 and CD86 using 3 color flow cytometric analysis. Tables 16, 17 and 18 show the fold increase in mean fluorescence intensity from control (non-stimulated cells) for dendritic cells, monocytes, and B cells, respectively.

[2] = tested on: IL-1β, TNF-α, IL-12 and IFN-γ production in PBMC; experiment: Cytokine production in PBMC from normal donors (ELISA); format: cell-based, human
[3] = tested on: CD40, CD80 and CD86 on monocytes; experiment: CD40, CD80 and CD86 expression on monocytes (3 color flow cytometry); format: cell-based, human; conditions: 20 ug/ml, 48 hours, vs non-stimulated cells
Source text: as §1

[4] = tested on: IFNγ production by lymph node cells; experiment: IFNγ production by lymph node cells from GV protein-immunized mice (enzyme-linked immunoassay); format: cell-based, female BALB/cByJ mice; conditions: lymph node cells of mice immunized with the same GV protein
Experimental: (§2) The immunogenicity of Mycobacterium vaccae recombinant proteins (referred to herein as GV recombinant proteins) was tested by injecting female BALB/cByJ mice in each hind foot-pad with 10 μg of recombinant GV proteins emulsified in incomplete Freund's adjuvant (IFA). Control mice received phosphate buffered saline in IFA. The draining popliteal lymph nodes were excised 10 days later and the cells obtained therefrom were stimulated with the immunizing GV protein and assayed for proliferation by measuring the uptake of tritiated thymidine. The amount of interferon gamma (IFNγ) produced and secreted by these cells into the culture supernatants was assayed by standard enzyme-linked immunoassay.

[5] = tested on: CD40, CD80 and CD86 on dendritic cells; format: cell-based, human
[6] = tested on: CD69 on αβT cells, γδT cells and NK cells; format: cell-based, human
[7] = tested on: CD83 and CD80 on purified dendritic cells; experiment: Dendritic cell maturation: CD83 and CD80 expression (flow cytometry); format: cell-based; conditions: GV-23 20 μg/ml or LPS 10 μg/ml, 20 hour, mean ± SD (n = 3)
Experimental: The effect of the recombinant M. vaccae protein GV-23 on the maturation and function of dendritic cells was examined as follows.
Purified dendritic cells (5×10^4−10^5 cells/ml) were stimulated with GV-23 (20 μg/ml) or LPS (10 μg/ml) as a positive control. Cells were cultured for 20 hour and then analyzed for CD83 (a maturation marker) and CD80 expression by flow cytometry. Non-stimulated cells were used as a negative control.

[8] = tested on: popliteal lymph node cells; experiment: Proliferation of lymph node cells from GV protein-immunized mice; format: cell-based, female BALB/cByJ mice; conditions: lymph node cells of mice immunized with 10 μg of the same GV protein in IFA
Experimental: as §2

[9] = tested on: dendritic cells with allogeneic T cells; experiment: Dendritic cell mixed lymphocyte reaction (MLR) assay; format: cell-based; conditions: 20 μg/ml for 18-20 hours, then allogeneic T cells
Experimental: The ability of GV-23 to enhance dendritic cell function as antigen presenting cells was determined by mixed lymphocyte reaction (MLR) assay. Purified dendritic cells were cultured in medium alone or with GV-23 (20 μg/ml) for 18-20 hours and then stimulated with allogeneic T cells (2×10^5 cells/well). After 3 days of incubation, (^3H)-thymidine was added. Cells were harvested 1 day later and the uptake of radioactivity was measured.

[10] = Dose of GV protein used in vitro 2 μg/ml
[11] = Dose of GV protein used in vitro 50 μg/ml
[12] = dendritic cells, 20 ug/ml, 48 hours, vs non-stimulated cells

B1: GV-23: recombinant M. vaccae antigen, amino acid sequence SEQ ID NO: 38 (protein, listed as Mycobacterium vaccae)
chain: VIEIDHVTKRFGDYLAVADADFSIAPGEFFSMLGPSGCGKTTTLRMIAGFETPTEGAIRLEGADVSRTPPNKRNVNTVFQHYALFPHMTVWDNVAYGPRSKKLGKGEVRKRVDELLEIVRLTEFAERRPAQLSGGQQQRVALARALVNYPSALLLDEPLGALDLKLRHVMQFELKRIQREVGITFIYVTHDQEEALTMSDRIAVMNAGNVEQIGSPTEIYDRPATVFVASFIGQANLWAGRCTGRSNRDYVEIDVLGSTLKARPGETTIEPGGHATLMVRPERIRVTPGSQDAPTGDVACVRATVTDLTFQGPVVRLSLAAPDDSTVIAHVGPEQDLPLLRPGDDVYVSWAPEASLVLPGDDIPTTEDLEEMLDDS
CD40 expression, fold increase in mean fluorescence intensity from control [1]: 1.2 fold
CD80 expression, fold increase in mean fluorescence intensity from control [1]: 1.1 fold
CD86 expression, fold increase in mean fluorescence intensity from control [1]: 1.4 fold
production of IL-1β, TNF-α, IL-12 and IFN-γ by PBMC [2]: stimulate the production of IL-1β, TNF-α and IL-12; also recorded: induced significant levels of the four cytokines examined
IL-1β production by PBMC relative to known adjuvants ([2]; GV-23 20 μg/ml): higher levels of IL-1β production being seen with GV-23 than with any of the known adjuvants
CD40 expression, fold increase in mean fluorescence intensity from control [3]: 2.3 fold
CD80 expression, fold increase in mean fluorescence intensity from control [3]: 1.5 fold
CD86 expression, fold increase in mean fluorescence intensity from control [3]: 0.7 fold
IFNγ [4, 10]: 9.17 ± 1.51 ng/mL
IFNγ ([4]; Dose of GV protein used in vitro 10 μg/ml): 30.70 ± 4.48 ng/mL
IFNγ [4, 11]: 59.67 ± 14.88 ng/mL
CD40, CD80 and CD86 expression in dendritic cells, comparison with adjuvants [5]: significant up-regulation of CD40, CD80 and CD86
CD40, CD80 and CD86 expression on dendritic cells ([5]; 20 ug/ml, 48 hours, T cell-depleted PBMC): highest levels of expression
CD40 expression, fold increase in mean fluorescence intensity from control [5, 12]: 6.0 fold
CD80 expression, fold increase in mean fluorescence intensity from control [5, 12]: 4.5 fold
CD86 expression, fold increase in mean fluorescence intensity from control [5, 12]: 1.8 fold
CD69 expression on NK cells, comparison with adjuvants [6]: induced CD69 expression on NK cells
percentage of αβT cells expressing CD69 ([6]; PBMC from normal donors, 20 ug/ml, 24 hours, control 3.8): 5.8%
percentage of NK cells expressing CD69 ([6]; PBMC from normal donors, 20 ug/ml, 24 hours, control 4.8): 46.8%
percentage of γδT cells expressing CD69 ([6]; PBMC from normal donors, 20 ug/ml, 24 hours, control 6.2): 10.0%
% CD80-positive dendritic cells ([7]; control 9 ± 6.6): 24.7 ± 14.2%
% CD83-positive dendritic cells ([7]; control 15 ± 8): 35 ± 13.2%
Proliferation (cpm) ([8]; Dose of GV protein used in vitro 0.08 μg/ml): 7,393 ± 2,188 cpm
Proliferation (cpm) [8, 10]: 15,423 ± 2,858 cpm
Proliferation (cpm) [8, 11]: 35,598 ± 1,330 cpm
dendritic cell mixed lymphocyte reaction ((3H)-thymidine uptake) [9]: enhances dendritic cell mixed lymphocyte reaction
